B1: double-ring (DR) mutant GroEL 14-mer (mutant GroEL14) (natural protein, E. coli, UniProt P0A6F5 2-548, looked up)
chain: AAKDVKFGNDARVKMLRGVNVLADAVKVTLGPKGRNVVLDKSFGAPTITKDGVSVAREIELEDKFENMGAQMVKEVASKANDAAGDGTTTATVLAQAIITEGLKAVAAGMNPMDLKRGIDKAVTAAVEELKALSVPASDSKAIAQVGTISANSDETVGKLIAEAMDKVGKEGVITVEDGTGLQDELDVVEGMQFDRGYLSPYFINKPETGAVELESPFILLADKKISNIREMLPVLEAVAKAGKPLLIIAEDVEGEALATLVVNTMRGIVKVAAVKAPGFGDRRKAMLQDIATLTGGTVISEEIGMELEKATLEDLGQAKRVVINKDTTTIIDGVGEEAAIQGRVAQIRQQIEEATSDYDREKLQERVAKLAGGVAVIKVGAATEVEMKEKKARVEDALHATRAAVEEGVVAGGGVALIRVASKLADLRGQNEDQNVGIKVALRAMEAPLRQIVLNAGEEPSVVANTVKGGDGNYGYNAATEEYGNMIDMGILDPTKVTRSALQYAASVAGLMITTEAMVTDLPKNDAADLGAAGGMGGMGGMGGMC
notes: GroEL, E. coli, UniProtKB P0A6F5, with four mutations made by QuikChange from the WT GroEL gene; the measured mass fits 14 monomers with the N-terminal methionine cleaved; numbers count the first methionine; also called DR GroEL14; source: E. coli BL21 (DE3) Gold, purified from the soluble fraction (chromatography, size exclusion); copies: 14
B2: single-ring (SR) mutant GroEL 7-mer (GroEL7) (natural protein, E. coli, UniProt P0A6F5 2-548, looked up)
chain: AAKDVKFGNDARVKMLRGVNVLADAVKVTLGPKGRNVVLDKSFGAPTITKDGVSVAREIELEDKFENMGAQMVKEVASKANDAAGDGTTTATVLAQAIITEGLKAVAAGMNPMDLKRGIDKAVTAAVEELKALSVPCSDSKAIAQVGTISANSDETVGKLIAEAMDKVGKEGVITVEDGTGLQDELDVVEGMQFDRGYLSPYFINKPETGAVELESPFILLADKKISNIREMLPVLEAVAKAGKPLLIIAEDVEGEALATLVVNTMRGIVKVAAVKAPGFGDRRKAMLQDIATLTGGTVISEEIGMELEKATLEDLGQAKRVVINKDTTTIIDGVGEEAAIQGRVAQIRQQIEEATSDYDREKLQERVAKLAGGVAVIKVGAATEVEMKEKKARVEDALHATRAAVEEGVVAGGGVALIRVASKLADLRGQNEDQNVGIKVALRAMEAPLEQIVLNCGEAPAAVANTVKGGDGNYGYNAATEEYGNMIDMGILDPTKVTRSALQYAASVAGLMITTECMVTDLPKNDAADLGAAGGMGGMGGMGGMM
notes: GroEL, E. coli, UniProtKB P0A6F5, with four mutations made by QuikChange from the WT GroEL gene; theoretical mass quoted for 7 monomers with the N-terminal methionine cleaved; numbers count the first methionine; also called SR GroEL7; mutant SR; source: E. coli BL21 (DE3) Gold, purified from the soluble fraction (chromatography, size exclusion)
B3: co-chaperonin GroES 7-mer (GroES7) (natural protein, E. coli, UniProt P0A6F9 1-97, looked up)
chain: MNIRPLHDRVIVKRKEVETKSAGGIVLTGSAAAKSTRGEVLAVGNGRILENGEVKPLDVKVGDIVIFNDGYGVKSEKIDNEEVLIMSESDILAIVEA
notes: GroES, E. coli, WT monomer; the measured mass fits the non-truncated form (N-terminal methionine kept); also called apo-GroES7; source: E. coli BL21 (DE3) Gold, purified from the soluble fraction (chromatography, size exclusion)
B4: N-acetyl neuraminic acid aldolase, native tetramer (NanA4) (enzyme, E. coli, UniProt P0A6L4 2-297, looked up)
chain: ATNLRGVMAALLTPFDQQQALDKASLRRLVQFNIQQGIDGLYVGGSTGEAFVQSLSEREQVLEIVAEEAKGKIKLIAHVGCVSTAESQQLAASAKRYGFDAVSAVTPFYYPFSFEEHCDHYRAIIDSADGLPMVVYNIPALSGVKLTLDQINTLVTLPGVGALKQTSGDLYQMEQIRREHPDLVLYNGYDEIFASGLLAGADGGIGSTYNIMGWRYQGIVKALKEGDIQTAQKLQTECNKVIDLLIKTGVFRGLKTVLHYMDVVSVPLCRKPFGPVDEKYLPELKALAQQLMQERG
notes: N-acetyl neuraminic acid aldolase NanA, E. coli, WT monomer; the theoretical mass quoted for the detected tetramer (129 849.09 Da) is that with the N-terminal methionine cleaved; also called tetrameric NanA4; source: E. coli BL21 (DE3) Gold, purified from the soluble fraction (chromatography, size exclusion)

Experiments:
[1] = target: the molecule itself; assay: native MS; capillary electrophoresis online with native ESI-MS (CE-MS) of the oligomer; bare fused silica capillary, BGE 50 mM ammonium acetate pH 6.7, 20 kV reverse polarity, cartridge 15 °C, in-source desolvation 100 V; sample diluted in 50 mM Tris-HCl pH 7.5, 50 mM KCl, 15 mM MgCl2
[2] = target: B1; assay: native MS; CE-MS; GroEL14 (6 µM) and GroES7 (6 µM) injected; BGE 50 mM ammonium acetate pH 6.7 with 10 to 50 µM ATPγS and 15 to 75 µM Mg2+; conditions: both partners purified

Binder | stoichiometry N [1] | stoichiometry N [2]
B1 | 14 subunits | 
B2 | 7 subunits | 
B3 | 7 subunits | 1 GroES7 per GroEL14
B4 | 4 subunits | 
